Values joined by “and” are separate entries in the source; they are usually repeats but may differ in a detail not shown here. Identical values can stand only once. Numbered stars: 1 amine (or outer) side, 2 acyl side, 3 side chain; on linkers, the order of the positions; unused ones are H or OH. Bridge positions count the residues as written; N and C are the ends. TRITC = tetramethylrhodamine dye; Cysteamine = C(CS[*:2])N[*:1]; Ahx = NCCCCCC(=O)O

Data set [1] has as its target clotted fibrin (human). Put plainly: T1-weighted MR at 1.5T: percent change of signal-intensity ratio, phantom 3 (pelleted fibrin) against phantom 1 (fibrinogen), 10 µM probe, liquid above the pellet.
Data set [2] addresses DD(E), soluble protein fragment of fibrin (human) (UniProt P02671). Put plainly: competitive displacement of TRITC-Tn6 (0.1 µM) from DD(E) (2 µM), fluorescence anisotropy, least-squares regression. (Polarisation of emitted light reports the rotation of a fluorescent probe.)
Data set [3] has as its target clotted fibrin (human). As to the kind of experiment: T1-weighted MR at 1.5T: percent change of signal-intensity ratio, phantom 2 (clotted fibrin) against phantom 1 (fibrinogen), 10 µM probe.
Data set [4] deals with clotted fibrin (human). As to the kind of experiment: T1-weighted MR at 1.5T: percent change of signal-intensity ratio, phantom 3 (pelleted fibrin) against phantom 1 (fibrinogen), 10 µM probe, region of the pellet; 1 pre-treated with PDI and DTT is converted to EP-2104R.
Sequence of clotted fibrin (human) (P50402 whole entry, the tested form may be a part): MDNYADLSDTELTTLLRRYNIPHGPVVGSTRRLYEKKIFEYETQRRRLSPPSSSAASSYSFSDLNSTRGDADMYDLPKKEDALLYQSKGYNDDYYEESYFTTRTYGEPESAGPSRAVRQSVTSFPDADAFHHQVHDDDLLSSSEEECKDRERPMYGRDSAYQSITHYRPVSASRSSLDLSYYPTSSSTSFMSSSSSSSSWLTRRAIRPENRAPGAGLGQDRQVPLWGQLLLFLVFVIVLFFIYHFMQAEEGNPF
Data set [5] deals with DD(E), soluble protein fragment of fibrin (human) (UniProt P02671). As to the kind of experiment: competitive displacement of TRITC-Tn6 (0.1 µM) from DD(E) (2 µM), fluorescence anisotropy.
Data set [6] addresses clotted fibrin (human). As to the kind of experiment: T1-weighted MR at 1.5T: percent change of signal-intensity ratio, phantom 3 (pelleted fibrin) against phantom 1 (fibrinogen), 10 µM probe, region of the pellet.
The target of data set [7] is clotted fibrin (human). As to the kind of experiment: T1-weighted MR at 1.5T: percent change of signal-intensity ratio, phantom 3 (pelleted fibrin) against phantom 1 (fibrinogen), 10 µM probe, liquid above the pellet; 1 pre-treated with PDI and DTT is converted to EP-2104R.
In data set [8] the target is clotted fibrin (human). Put plainly: T1-weighted MR at 1.5T: percent change of signal-intensity ratio, phantom 2 (clotted fibrin) against phantom 1 (fibrinogen), 10 µM probe; 1 pre-treated with PDI and DTT is converted to EP-2104R.
A further data set has as its system T1, TRITC-Tn6-MDS.
T1 sequence: QWECPYGLCWIQ

Data set [9] concerns the target DD(E), soluble protein fragment of fibrin (human) (UniProt P02671). Put plainly: direct titration of the TRITC probe (0.1 µM) with DD(E) up to about 32 µM, fluorescence anisotropy plotted as % probe bound.
Data set [10] has the same target. As to the kind of experiment: fluorescence anisotropy, serial dilution of DD(E) mixed with the probe; reference is cyclic TRITC-Tn6.

As usually defined, the Kd is the constant that tells how readily two partners part at equilibrium. Consider EP-2104R (peptide), for which the %Δ SIR, upper region is -24% and -21% with clotted fibrin (human) [1]; -22% in the data set with clotted fibrin (human) [7]. The molecule further registered an equilibrium dissociation constant (Kd) in data set [2] of 160 nM. The %Δ SIR with clotted fibrin (human) [3] was 8% and 11%; with clotted fibrin (human) [8], 12%. Besides, the %Δ SIR, lower region is 36% with clotted fibrin (human) [4]; 49% and 69% in the data set with clotted fibrin (human) [6]. In data set [5], the IC50 (read off the curve) is 2000 nM.

Take protein disulfide isomerase: in the data set with Compound 1, the “conversion of Compound 1 to EP-2104R, followed by 1/T1 in the presence of 12.0 µM DD(E)” value is “The rate of conversion of 1 to EP-2104R was most rapid for the reaction performed under condition D in which both PDI and DTT were present simultaneously”; the “conversion of Compound 1 to EP-2104R, seen as fall of the anisotropy of TRITC-Tn6 on DD(E)” value was “with 1 mg/L PDI plus 10 µM DTT the anisotropy falls from about 0.25 to about 0.183 in about 1170 s, with DTT alone only to about 0.233; with PDI alone it stays at about 0.25 like untreated”; the “conversion of Compound 1 to EP-2104R, seen as rise of 1/T1 with 12.0 µM DD(E)” value is on record as “with 3 mg/L PDI plus 10.0 µM DTT 1/T1 rises from about 0.69 to about 0.825 s-1 in about 3750 s, with DTT alone from about 0.65 to about 0.715 s-1; with PDI alone it stays at about 0.64 s-1 like untreated”. In the data set on TRITC-Tn6-MDS, the “conversion of the mixed-disulfide form to the cyclized form, followed by LC-MS” value is “PDI alone does not promote cyclization of the probe, but PDI in the presence of a reducing agent like dithiothreitol (DTT) promotes rapid conversion of the probe to the desired product compared to DTT alone”; the “real-time change in fluorescence anisotropy in the presence of 2 µM DD(E)” value was “it is evident that only when both PDI and DTT are present simultaneously that the probe is efficiently activated”.

B1: TRITC-Tn6-MDS (peptide)
peptide: {TRITC-Ahx}-QWEC(Cysteamine)PYGLC(Cysteamine)WIQ-NH2
In data set [9], B1 had a Kd of 9650 nM. The molecule further gave a fold Kd relative to the cyclic form in data set [10] of 20 fold.

B2: TRITC-Tn6 peptide (cyclic form) (peptide)
peptide: {TRITC-Ahx}-QWECPYGLCWIQ-NH2
modifications: disulfide 4-9
B2 returned a Kd in data set [9] of 510 nM.

The values above are taken from patent publication US20160346411A1.
